Measured values reported in patent US20230399385A1 (NANJING VAZYME BIOTECH, published 2023).

Columns and labels:
[1] = biological target: T1, SARS-CoV-2 RBD (receptor binding domain of the spike protein of SARS-CoV-2; Vazyme Biotech) (SARS-CoV-2, UniProt P0DTC2 319-541); test: ELISA: SARS-CoV-2 RBD coated on the plate, Antibody 5-10 titrated, detected with anti-human IgG-HRP/TMB, OD450
[2] = biological target: SARS-CoV-2 spike (S) glycoprotein, wild-type, on pseudotyped virus (SARS-CoV-2, UniProt P0DTC2 14-1273); test: cell-based or functional assay
[3] = biological target: T1, SARS-CoV-2 RBD (receptor binding domain …); test: HTRF ACE2/RBD binding assay (665/620 ratio): Antibody 5-10 titrated, blocked ligand ACE2
[4] = biological target: T1, SARS-CoV-2 RBD (receptor binding domain …); test: biolayer interferometry, ForteBio Octet RED96e, RBD 100 nM to 3.13 nM, 1:1 Langmuir model
[5] = biological target: T1, SARS-CoV-2 RBD (receptor binding domain …); test: method not stated in this sentence (summary of Example 1); biolayer interferometry in Example 2

B1: Antibody 5-10 (antibody, V domains shown)
VH: EVQLLESGGGLVQPGGSLRLSCAASGFTFSSYAMSWVRQAPGKGLEWVSAIVGSGGSTYYADSVKGRFIISRDNSKNTLYLQMNSLRAEDTAVYYCAKSLIYGHYDILTGAYYFDYWGQGTLVTVSS
VL: DIQMTQSPSSVSASVGDRVTIPCRASQGIGNWLAWYQQKPGKAPKLLIYAASSLQSGVPSRFSGSGSGTDFTLTISSLQPEDFATYYCQQANSFPPFGQGTRLEIK
notes: also called anti-SARS-CoV-2 RBD Antibody 5-10; monoclonal Antibody 5-10
With B1 the EC50 [1] was 0.0269 µg/mL, the “IC50, neutralizing effects on SARS-CoV-2 pseudovirus” value [2] was 0.0425 µg/mL and the IC50 [3] was 0.231 µg/mL. It also gave a Kd [4] of 4.32 nM and a Kd [5] of 4.31 nM.
